The values below are quoted from earlier work in patent US6872537B1, “Assays for the detection of microtubule depolymerization inhibitors” (Regents of the University of California, priority 1998, dated 2005).

The conditions of the data set: literature values for comparison.

Regarding “p97: AAA ATPase cited for comparison [reference compound]”, the “ATPase activity of other AAA family members” value is given as 1 ATP/sec.
